Reference: US20130273035

Target: Aβ1-42 (UniProt P05067)
Sequence (P05067 whole entry, looked up, tested part not stated): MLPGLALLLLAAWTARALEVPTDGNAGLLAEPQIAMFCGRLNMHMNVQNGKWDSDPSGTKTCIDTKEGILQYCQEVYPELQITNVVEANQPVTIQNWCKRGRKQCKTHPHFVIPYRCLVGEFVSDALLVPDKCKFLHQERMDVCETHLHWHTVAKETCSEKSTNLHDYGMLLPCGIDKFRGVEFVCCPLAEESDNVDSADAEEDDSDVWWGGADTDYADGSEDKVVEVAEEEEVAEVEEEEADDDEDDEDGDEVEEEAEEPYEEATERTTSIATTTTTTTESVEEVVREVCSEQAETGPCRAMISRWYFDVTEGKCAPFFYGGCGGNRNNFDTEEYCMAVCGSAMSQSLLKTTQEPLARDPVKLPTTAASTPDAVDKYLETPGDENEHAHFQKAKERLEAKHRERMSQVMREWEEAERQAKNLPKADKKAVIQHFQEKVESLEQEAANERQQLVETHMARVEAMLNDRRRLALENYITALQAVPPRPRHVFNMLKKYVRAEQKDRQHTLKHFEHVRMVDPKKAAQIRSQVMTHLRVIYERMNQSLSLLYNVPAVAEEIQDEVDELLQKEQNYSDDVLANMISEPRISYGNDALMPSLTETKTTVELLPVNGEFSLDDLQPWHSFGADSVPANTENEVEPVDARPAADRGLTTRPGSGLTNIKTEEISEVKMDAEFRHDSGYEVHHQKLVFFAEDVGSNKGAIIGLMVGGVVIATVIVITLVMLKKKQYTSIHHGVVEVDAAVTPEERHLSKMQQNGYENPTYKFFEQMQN

Cathepsin L
proteolytic products analyzed with SELDI-TOF mass spectrometry: Incubating Aβ1-42 with CatL resulted in the dose-dependent generation of Aβ6-42 through proteolytic cleavage
